According to article PMC10057847, “Precision engineering of biological function with large-scale measurements and machine learning” (PLOS ONE, 2023):
Changes are numbered by the printed parent chain. In names and notes the source's numbering stands.

B1: pVER-IPTG-002(V136E): LacI variant: V96E V136E T154I S158R V238D M254I V264I (protein, UniProt P03023 1-360, looked up, variant V96E V136E T154I S158R V238D M254I V264I)
Lactose operon repressor: MKPVTLYDVAEYAGVSYQTVSRVVNQASHVSAKTREKVEAAMAELNYIPNRVAQQLAGKQSLLIGVATSSLALHAPSQIVAAIKSRADQLGASVVESMVERSGVEACKAAVHNLLAQRVSGLIINYPLDDQDAIAEEAACTNVPALFLDVSDQIPINRIIFSHEDGTRLGVEHLVALGHQQIALLAGPLSSVSARLRLAGWHKYLTRNQIQPIAEREGDWSAMSGFQQTMQMLNEGIDPTAMLVANDQMALGAIRAITESGLRIGADISVVGYDDTEDSSCYIPPLTTIKQDFRLLGQTSVDRLLQLSQGQAVKGNQLLPVSLVKRKTTLAPNTQTASPRALADSLMQLARQVSRLESGQ
B2: pVER-IPTG-WT(F161V): LacI variant: F161V (protein, UniProt P03023 1-360, looked up, variant F161V)
Lactose operon repressor: B1 Lactose operon repressor with E96V, E136V, I154T, R158S, F161V, D238V, I254M, I264V
B3: pVER-IPTG-WT(L56M/A194V): LacI variant: L56M A194V (protein, UniProt P03023 1-360, looked up, variant L56M A194V)
Lactose operon repressor: B1 Lactose operon repressor with L56M, E96V, E136V, I154T, R158S, A194V, D238V, I254M, I264V
B4: pVER-IPTG-WT(L56M/D130E): LacI variant: L56M D130E (protein, UniProt P03023 1-360, looked up, variant L56M D130E)
Lactose operon repressor: B1 Lactose operon repressor with L56M, E96V, D130E, E136V, I154T, R158S, D238V, I254M, I264V
B5: pVER-IPTG-003: LacI variant: V52M H74Y V119I G200V R207H L262M K290R Q306H A337V Q352* (protein, UniProt P03023 1-360, looked up, variant V52M H74Y V119I G200V R207H L262M K290R Q306H A337V Q352*)
Lactose operon repressor: MKPVTLYDVAEYAGVSYQTVSRVVNQASHVSAKTREKVEAAMAELNYIPNRMAQQLAGKQSLLIGVATSSLALYAPSQIVAAIKSRADQLGASVVVSMVERSGVEACKAAVHNLLAQRISGLIINYPLDDQDAIAVEAACTNVPALFLDVSDQTPINSIIFSHEDGTRLGVEHLVALGHQQIALLAGPLSSVSARLRLAVWHKYLTHNQIQPIAEREGDWSAMSGFQQTMQMLNEGIVPTAMLVANDQMALGAMRAITESGMRVGADISVVGYDDTEDSSCYIPPLTTIRQDFRLLGQTSVDRLLHLSQGQAVKGNQLLPVSLVKRKTTLAPNTQTVSPRALADSLMQLARVSRLESGQ
B6: pVER-IPTG-WT(G200C): LacI variant: G200C (protein, UniProt P03023 1-360, looked up, variant G200C)
Lactose operon repressor: B1 Lactose operon repressor with E96V, E136V, I154T, R158S, G200C, D238V, I254M, I264V
B7: pVER-IPTG-WT(I83M): LacI variant: I83M (protein, UniProt P03023 1-360, looked up, variant I83M)
Lactose operon repressor: B1 Lactose operon repressor with I83M, E96V, E136V, I154T, R158S, D238V, I254M, I264V

These molecules were tested on eYFP under the control of the lactose operator (lacO) (assay: in vivo dose-response curves of LacI variants to IPTG measured with flow cytometry (eYFP output), fit to the Hill equation). Details: IPTG dose-response, Hill fit of cytometry data.
Type: cell-based, E. coli
Procedure: Dose-response curves were measured with flow cytometry using E. coli MG1655Δlac transformed with variants of the pVER plasmid, described previously. The plasmid contained different variants of the lacI coding DNA sequence (CDS), as described in the text, and an expression cassette with enhanced yellow fluorescent protein (eYFP) under the control of the lactose operator (lacO). The lacI CDS was verified with Sanger sequencing for each variant.
All cultures were grown in a rich M9 media (3 g/L KH2PO4, 6.78 g/L Na2HPO4, 0.5 g/L NaCl, 1 g/L NH4Cl, 0.1 mmol/L CaCl2, 2 mmol/L MgSO4, 4% glycerol, and 20 g/L casamino acids) supplemented with 50 μg/mL kanamycin.
For flow cytometry measurements, E. coli cultures were grown in a laboratory automation system that included an automated liquid handler (Hamilton, STAR), an automated plate sealer (4titude, a4S), an automated de-sealer (Brooks, XPeel), and two multi-mode plate readers (BioTek, Neo2SM).
Cultures were grown in clear polystyrene 96-well plates with 1.1 mL square wells (4titude, 4ti-0255). The culture volume per well was 0.5 mL. Before incubation, each 96-well growth plate was sealed by the automated plate sealer with a gas permeable membrane (4titude, 4ti-0598). Growth plates were incubated in one of the multi-mode plate readers at 37°C with a 1°C gradient applied from the bottom to the top of the incubation chamber to minimize condensation on the inside of the membrane. The plate readers were set for double-orbital shaking at 807 cycles per minute. Optical density at 600 nm (OD600) was measured every 5 minutes during incubation, with continuous shaking applied between measurements (optical density at 700 nm and YFP fluorescence were also measured every 5 minutes). After incubation, the automated de-sealer was used to remove the gas-permeable membrane from each 96-well plate to enable automated passaging of cultures and sample preparation for flow cytometry measurements.
For each measurement, starter cultures were prepared from glycerol freezer stock in 5 mL of rich M9 media in a 14 mL snap-cap culture tubes. Starter cultures were incubated at 37°C with orbital shaking at 300 rpm for between 4 h and 24 h prior to loading the automation system. The automation system then prepared 96-well growth plates, sealed and de-sealed the growth plates, incubated the growth plates, and prepared flow cytometry sample plates. The automated culture protocol consisted of the following steps: […]
B1 was tested, and the “n: the Hill coefficient” value was 2.088. B2 was tested, and the “n: the Hill coefficient” value was 1.594. In the case of B3, the “n: the Hill coefficient” value is reported as 1.42. For B4, the “n: the Hill coefficient” value was 1.42. For B5, the “n: the Hill coefficient” value was 0.7133.

Same assay, conditions: basal output, Hill fit of cytometry data, posterior mean; value is log10
B1 was tested, and the “log_g0: the base-10 logarithm of G0 (in MEF)” value was 4.551 MEF. With B5 the “log_g0: the base-10 logarithm of G0 (in MEF)” value was 4.508 MEF.

Same assay, conditions: saturating output, Hill fit of cytometry data, posterior mean; value is log10
B1 was tested, and the “log_ginf: the base-10 logarithm of G∞ (in MEF)” value (“log_ginf: the base-10 logarithm” for short) was 1.924 MEF. B6 was tested, and the “log_ginf: the base-10 logarithm” value was 4.489 MEF. With B7 the “log_ginf: the base-10 logarithm” value was 4.268 MEF. For B5, the “log_ginf: the base-10 logarithm” value was 3.573 MEF.
